# Data taken from patent publication US20240132617A1 (VISTERRA, published 2024).
# Target: T1, human C3b (human, UniProt P01024 23-667; P01024 749-1663, limits assumed)
# T1 construct: C3b is its two-chain fragment (beta chain plus alpha' chain, without C3a); also called complement component 3b
# Assay: antibody levels measured by capture on human C3b versus Cynomolgus C3b (FIG. 1C and FIG. 1D)
# Description: In this study, pharmacokinetics of anti-C3b antibodies was determined in non-human primates. First, Ab1 (anti-C3b VHH fused to modified IgG4 Fc) and control Ab (IC12; control antibody) were intravenously administered at 10 mg/kg to Cynomolgus monkeys. Plasma samples were collected pre-administration and at 30 minutes, 6 hr, 24 hr, 48 hr, 120 hr, 336 hr, 456 hr, 672 hr, and 792 hr post administration, and % of antibody remaining was measured.
# To confirm that the C3b antibody of the present invention binds to human C3b with high affinity, in addition to Cynomolgus C3b, concentrations of antibodies to human C3b or Cynomolgus C3b were measured.
# T1 sequence (P01024 23-667 limits assumed, chain 1 of 2): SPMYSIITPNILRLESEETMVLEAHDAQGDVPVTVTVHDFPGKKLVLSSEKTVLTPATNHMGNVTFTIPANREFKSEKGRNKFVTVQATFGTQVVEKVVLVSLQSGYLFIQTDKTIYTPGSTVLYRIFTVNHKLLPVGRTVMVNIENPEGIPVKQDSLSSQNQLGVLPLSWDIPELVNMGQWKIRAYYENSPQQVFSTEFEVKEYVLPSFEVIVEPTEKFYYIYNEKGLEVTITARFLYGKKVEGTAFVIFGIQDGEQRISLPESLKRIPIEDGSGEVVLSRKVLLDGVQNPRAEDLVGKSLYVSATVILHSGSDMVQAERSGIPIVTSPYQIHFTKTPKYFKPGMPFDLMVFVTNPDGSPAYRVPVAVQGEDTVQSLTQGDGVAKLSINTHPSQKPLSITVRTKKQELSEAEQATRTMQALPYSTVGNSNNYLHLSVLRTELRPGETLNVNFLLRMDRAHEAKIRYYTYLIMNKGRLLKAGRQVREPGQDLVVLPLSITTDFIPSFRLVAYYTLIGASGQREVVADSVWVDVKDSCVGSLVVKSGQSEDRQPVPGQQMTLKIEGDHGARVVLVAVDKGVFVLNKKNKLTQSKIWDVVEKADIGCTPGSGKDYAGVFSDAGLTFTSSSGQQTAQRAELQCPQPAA
# T1 sequence (P01024 749-1663 limits assumed, chain 2 of 2): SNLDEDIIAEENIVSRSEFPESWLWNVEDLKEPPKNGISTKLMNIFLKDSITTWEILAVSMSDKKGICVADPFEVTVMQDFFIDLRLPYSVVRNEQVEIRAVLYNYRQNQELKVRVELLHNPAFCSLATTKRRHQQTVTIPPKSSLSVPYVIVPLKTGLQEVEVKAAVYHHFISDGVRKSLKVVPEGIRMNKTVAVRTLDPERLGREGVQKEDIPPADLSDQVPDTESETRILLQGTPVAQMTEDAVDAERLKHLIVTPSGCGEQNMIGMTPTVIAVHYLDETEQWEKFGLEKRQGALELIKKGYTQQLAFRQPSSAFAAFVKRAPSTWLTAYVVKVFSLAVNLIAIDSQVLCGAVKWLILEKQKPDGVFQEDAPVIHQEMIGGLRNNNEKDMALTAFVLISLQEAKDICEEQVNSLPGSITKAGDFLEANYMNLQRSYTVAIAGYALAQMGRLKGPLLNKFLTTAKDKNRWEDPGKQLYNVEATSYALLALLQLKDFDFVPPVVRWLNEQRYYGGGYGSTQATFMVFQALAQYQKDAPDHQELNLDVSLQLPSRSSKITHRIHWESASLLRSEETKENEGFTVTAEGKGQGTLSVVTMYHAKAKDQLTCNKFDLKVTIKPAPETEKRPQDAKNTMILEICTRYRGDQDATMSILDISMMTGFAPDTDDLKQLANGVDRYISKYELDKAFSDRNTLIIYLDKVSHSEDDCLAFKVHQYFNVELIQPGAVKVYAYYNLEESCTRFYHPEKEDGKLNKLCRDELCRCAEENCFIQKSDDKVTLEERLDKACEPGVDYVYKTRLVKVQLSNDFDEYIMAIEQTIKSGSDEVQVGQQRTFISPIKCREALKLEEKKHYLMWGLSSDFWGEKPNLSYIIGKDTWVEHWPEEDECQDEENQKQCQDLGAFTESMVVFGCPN
binder,measurement,value
"Ab1 (anti-C3b VHH fused to modified IgG4 Fc) (Fc fusion, In the assay Ab1 was in plasma of dosed Cynomolgus monkeys; also called anti-C3b Ab1; C3b antibody) EVQLLESGGGLVQPGGSLRLSCAASGRTFSNYHMGWFRQAPGQGREFVATIIRTGTTIYYADSVKGRFTISRDNSKNTLYLQMNSLRAEDTAVYYCAAATSGWHIKTVTPYEYWGQGTLVTVSSESKYGPPCPPCPAPEVEGGPSVFLFPPKPKDTLMISRTPEVTCVVVGVSQEDPEVQFNWYVDGVEVHNAKTKPREEQFNSTYRVVSVLQVLHVDWLNGKEYKCKVSNKGLPSSIEKTISKAKGQPREPQVYTLPPSQEEMTKNQVSLTCLVKGFYPSDIVVEWESNGQPENNYKTTPPVLDSDGSFFLYSRLTVDKSRWQEGNVFSCSVMHEALHNHYTQKSLSLSLGK",fold greater affinity as compared to Cynomolgus C3b,~100 fold
